Test results published in patent publication US20070248617A1 (published 2007).

Molecular target: T1, recombinant human RANK-hFc fusion protein (human, UniProt Q9Y6Q6 30-212, limits assumed)
T1 construct: also called hRANK; not shown: human Fc (hFc)
T1 sequence (looked up): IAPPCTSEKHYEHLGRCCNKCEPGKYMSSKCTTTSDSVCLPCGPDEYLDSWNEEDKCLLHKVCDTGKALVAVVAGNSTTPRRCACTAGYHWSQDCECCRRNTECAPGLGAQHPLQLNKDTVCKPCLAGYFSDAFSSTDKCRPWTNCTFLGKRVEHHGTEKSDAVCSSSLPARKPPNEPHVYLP
Assay: ELISA, human RANKL coated at 10 µg/ml, serial dilutions of human RANK-hFc, anti-hFc-HRP detection
Experimental: To test whether the antibodies generated in mice have neutralizing activity, in vitro binding assays for both mouse and human RANKL and their cognate receptors mouse RANK and human RANK were established. ELISA plates were therefore coated with 10 μg/ml of either mouse or human RANKL protein and incubated with serial dilutions of a recombinant mouse RANK-hFc fusion protein or a recombinant human RANK-hFc fusion protein, respectively. Bound protein was detected with a horse raddish peroxidase conjugated anti-hFc antibody. […] Sera of mice immunized with mRANKL(155-174) coupled to Qβcapsid were then tested for their ability to inhibit the binding of mouse and human RANKL protein to their respective receptors. ELISA plates were therefore coated with either mouse or human RANKL protein at a concentration of 10 μg/ml, and co-incubated with serial dilutions of a pool of mouse sera from day 35 and 0.35 nM mouse or human RANK-hFc fusion protein, respectively. Binding of receptor to immobilized RANKL protein was detected with horse raddish peroxidase conjugated anti-hFc antibody.

binding result: binds
B1: human RANKL protein (ligand, UniProt O14788 140-317, looked up)
chain: IRAEKAMVDGSWLDLAKRSKLEAQPFAHLTINATDIPSGSHKVSLSSWYHDRGWAKISNMTFSNGKLIVNQDGFYYLYANICFRHHETSGDLATEYLQLMVYVTKTSIKIPSSHTLMKGGSTKYWSGNSEFHFYSINVGGFFKLRSGEEISIEVSNPSLLDPDQDATYFGAFKVRDID
notes: also called hRANKL
